Measurements reported in patent US20070254831A1 (published 2007).
Read-outs that look alike come from different tables or passages of the source. Each block holds one binder with its values, some of them ahead of it. Numbered stars: 1 amine (or outer) side, 2 acyl side, 3 side chain; on linkers, the order of the positions; unused ones are H or OH. Bridge positions count the residues as written; N and C are the ends. Square brackets hold non-standard residues; d marks the D form. Ends that are not written are not given here. X3 = 3(S)‑3‑amino‑2‑oxo‑1‑azepine acetic acid, O=C1[C@@H](N[*:1])CCCCN1CC(=O)[*:2]; 3‑amino‑2‑oxo‑1‑piperidine‑acetic acid = dipeptide mimetic in place of Gly-Gly; 6,5‑bicyclic dipeptide mimic = not defined here; Pen = CC(C)(S)[C@H](N)C(=O)O; NMeA = CN[C@@H](C)C(=O)O; Ava = NCCCCC(=O)O; Sar = CNCC(=O)O

What was measured:
soluble human FcRn [1] = biological target: T1, soluble human FcRn (human, UniProt P55899 24-297; P61769 21-119, biotinylated (Sulfo-NHS-LC-Biotin) in the ELISA; amine-coupled to CM5 chip in SPR); assay: ELISA, competitor human IgG
T1 construct: also called shFcRn; biotinylated shFcRn
Description: (§1) The wells were coated with 100 μl/well of 1 μg/ml biotinylated-shFcRn in Buffer A. The plate was sealed and incubated at 37° C. for 2 hours. Afterwards, the plate washed with 200 μl/well of Buffer B (Buffer B: 100 mM MES pH 6, 150 mM NaCl, 0.5% BSA IgG-free (Jackson ImmunoResearch, West Grove, Pa.), 0.05% Tween-20). […] To allow for mixing, the plate was rocked for 2 minutes, sealed and incubated at 37° C. for 2 hours. […] The plate was covered, incubated for 30 minutes at room temperature and washed 4 times with 200 μl/well of ice-cold buffer B. SureBlue TMB substrate solution (100 μl/well, KPL, Gaithersburg, Md.) was added and the plate was allowed to incubate at room temperature until color developed, which took 5 to 10 minutes. Once color developed, 100 μl/well of TMB stop solution (KPL, Gaithersburg, Md.) was added and the absorbance was measured at 450 nm. The data was plotted as absorbance vs. peptide concentration to derive the inhibitory concentration 50% (IC₅₀) values.

soluble human FcRn [2] = biological target: T1, soluble human FcRn; assay: SPR, pH 6
Description: (§2) The following steps were performed to cross-link soluble human or cynomolgus FcRn to the dextran surface of a CM5 sensor chip (Biacore AB, Uppsala, Sweden) by an amine coupling reaction involving 1-ethyl-(3-dimethylaminopropyl)-carbodiimide hydrochloride (EDC) (Biacore AB, Uppsala, Sweden) and N-hydroxysuccinimide (NHS) (Biacore AB, Uppsala, Sweden) as recommended by Biacore (BIAapplications Handbook, version AB, section 4.2, Biacore AB, Uppsala, Sweden). […] Residual sites on the FcRn flow cell were blocked with 1 M ethanolamine hydrochloride pH 8.5 (Biacore AB, Uppsala, Sweden). A control flow cell was blocked with ethanolamine for reference subtraction. For analysis of the monomeric peptides, FcRn was coated to a final density of 4000-5000 response units (RU). For analysis of the peptide dimers, FcRn was coated to a density of 2000-2500 RU. All SPR measurements were performed using a BIACORE 3000 Instrument (Biacore AB Uppsala, Sweden). For measurements done at either pH 6 or pH 7.4, experiments were performed in 50 mM phosphate, 100 mM sodium chloride, 0.01% surfactant P20 (Biacore AB, Uppsala, Sweden).
(§3) Ten, 2-fold dilutions of the peptide were injected over the FcRn-CM5 chip at a rate of 20 μl/min for 2 min. The peptide was dissociated from the chip for 2.5 minutes with buffer. Any remaining peptide was removed from the chip with a 30 second injection of HBS-P buffer (Biacore AB, Uppsala, Sweden) at a rate of 30 μl/min. Sensorgrams were generated and analyzed using BiaEval software version 3.1 (Biacore AB, Uppsala, Sweden). The equilibrium RU observed for each injection was plotted against concentration. The equilibrium KD values were derived by analysis of the plots using the steady state affinity model included in the BiaEval software.

soluble human FcRn [3] = biological target: T1, soluble human FcRn; assay: ELISA, competitor human IgG; remark: listed apart in the source
Description: as §1

soluble human FcRn [4] = biological target: T1, soluble human FcRn; assay: ELISA, competitor human IgG; remark: listed apart in the source
Description: as §1

soluble human FcRn [5] = biological target: T1, soluble human FcRn; assay: SPR, pH 6; remark: listed apart in the source
Description: as §2, §3

soluble human FcRn [6] = biological target: T1, soluble human FcRn; assay: ELISA, competitor human IgG; remark: listed apart in the source
Description: as §1

soluble human FcRn [7] = biological target: T1, soluble human FcRn; assay: SPR, pH 6; remark: listed apart in the source
Description: as §2, §3

soluble human FcRn [8] = biological target: T1, soluble human FcRn; assay: SPR, pH 6; remark: listed apart in the source
Description: as §2, §3

soluble human FcRn [9] = biological target: T1, soluble human FcRn; assay: ELISA, competitor human IgG; remark: listed apart in the source
Description: as §1

soluble human FcRn [10] = biological target: T1, soluble human FcRn; assay: SPR, pH 7.4
Description: as §2, §3

soluble human FcRn [11] = biological target: T1, soluble human FcRn; assay: SPR, pH 6; remark: listed apart in the source
Description: as §2, §3

soluble human FcRn [12] = biological target: T1, soluble human FcRn; assay: ELISA, competitor human IgG; remark: listed apart in the source
Description: as §1

soluble human FcRn [13] = biological target: T1, soluble human FcRn; assay: SPR, pH 7.4; remark: listed apart in the source
Description: as §2, §3

soluble human FcRn [14] = biological target: T1, soluble human FcRn; assay: ELISA, competitor human IgG; remark: listed apart in the source
Description: as §1

soluble human FcRn [15] = biological target: T1, soluble human FcRn; assay: SPR, pH 7.4; remark: listed apart in the source
Description: as §2, §3

soluble human FcRn [16] = biological target: T1, soluble human FcRn; assay: SPR, pH 6; remark: listed apart in the source
Description: as §2, §3

soluble human FcRn [17] = biological target: T1, soluble human FcRn; assay: ELISA, competitor human IgG; remark: listed apart in the source
Description: as §1

soluble human FcRn [18] = biological target: T1, soluble human FcRn; assay: ELISA, competitor human IgG; remark: listed apart in the source
Description: as §1

soluble human FcRn [19] = biological target: T1, soluble human FcRn; assay: SPR, pH 7.4; remark: listed apart in the source
Description: as §2, §3

soluble human FcRn [20] = biological target: T1, soluble human FcRn; assay: SPR, pH 6; remark: listed apart in the source
Description: as §2, §3

soluble human FcRn [21] = biological target: T1, soluble human FcRn; assay: ELISA, competitor human IgG; remark: listed apart in the source
Description: as §1

IC50 (soluble human FcRn [4]): 64 µM
Kd (soluble human FcRn [5]): 22 µM
B3: SEQ ID NO:8 (peptide)
peptide: AGKIICSPGHFGGMYCQGKGTGGGK-NH2
modifications: disulfide 6-16 (inferred)

Kd (soluble human FcRn [8]): 1 µM
IC50 (soluble human FcRn [9]): 5.5 µM
B6: Peptide No. 213 (peptide)
peptide: QRF[Pen][NMeA]GHFGGLYPCNGP-NH2
modifications: disulfide 4-14; N-terminus assumed
SMILES: CC(C)C[C@@H]1NC(=O)CNC(=O)CNC(=O)[C@H](Cc2ccccc2)NC(=O)[C@H](Cc2c[nH]cn2)NC(=O)CNC(=O)[C@H](C)N(C)C(=O)[C@@H](NC(=O)[C@H](Cc2ccccc2)NC(=O)[C@H](CCCNC(=N)N)NC(=O)[C@@H](N)CCC(N)=O)C(C)(C)SSC[C@@H](C(=O)N[C@@H](CC(N)=O)C(=O)NCC(=O)N2CCC[C@H]2C(N)=O)NC(=O)[C@@H]2CCCN2C(=O)[C@H](Cc2ccc(O)cc2)NC1=O

Kd (soluble human FcRn [13]): 34.7 µM
Kd (soluble human FcRn [5]): 5.2 µM
B10: SEQ ID NO:7 (peptide)
peptide: AGGGCVTGHFGGIYCNTQGTGGGK-NH2
modifications: disulfide 5-15 (inferred)

Kd (soluble human FcRn [13]): 76 µM
IC50 (soluble human FcRn [4]): 49 µM
Kd (soluble human FcRn [5]): 8.8 µM
B12: SEQ ID NO:9 (peptide)
peptide: AGPSYCIEGHIDGIYCFNAGTGGGK-NH2
modifications: disulfide 6-16 (inferred)

Kd (soluble human FcRn [15]): 200 µM
Kd (soluble human FcRn [16]): 230 µM
IC50 (soluble human FcRn [17]): > 125 µM
B16: SEQ ID NO:31 (peptide)
peptide: QRFCTGHFAGLYPCNGP-NH2
modifications: disulfide 4-14 (inferred)

Kd (soluble human FcRn [15]): 81 µM
Kd (soluble human FcRn [16]): 26 µM
IC50 (soluble human FcRn [17]): 107 µM
B17: SEQ ID NO:33 (peptide)
peptide: QRFCTGHFGGAYPCNGP-NH2
modifications: disulfide 4-14 (inferred)

Kd (soluble human FcRn [15]): 100 µM
B18: SEQ ID NO:35 (peptide)
peptide: QRFCTGHFGGLYACNGP-NH2
modifications: disulfide 4-14 (inferred)

IC50 (soluble human FcRn [14]): 19 µM
B19: Peptide No. 216 (peptide)
peptide: QRFXTGHFGXYPCNGP
modifications: Pen at 4; X at 10 = L,L-Friedinger's lactam (dipeptide mimetic for Gly-Leu); disulfide; C-terminal amide

IC50 (soluble human FcRn [18]): 36 µM
Kd (soluble human FcRn [13]): 45 µM
IC50 (soluble human FcRn [4]): 36 µM
Kd (soluble human FcRn [19]): 45 µM
Kd (soluble human FcRn [20]): 5.7 µM
Kd (soluble human FcRn [5]): 5.7 µM
B21: SEQ ID NO:6 (peptide)
peptide: AGQRFCTGHFGGLYPCNGPGTGGGK-NH2
modifications: disulfide 6-16 (inferred)

The remaining lines, values behind:

B1: Peptide No. 185 (peptide)
peptide: RFVTGHFXLYPA
modifications: X at 8 = 3-amino-N-1-carboxymethyl-2,3,4,5-tetrahydro-1H-[1]-benzazepine-2-one (drawing CHEM-US-00097); linear; C-terminal amide
IC50 (soluble human FcRn [1]): 57 µM
Kd (soluble human FcRn [2]): 3.1 µM

B2: Peptide No. 96 (peptide)
peptide: QRFXTGHFGGLYPCNGP
modifications: D-Phe at 3; Pen at 4; disulfide; C-terminal amide
IC50 (soluble human FcRn [3]): 11.4 µM

B4: Peptide No. 67 (peptide)
peptide: QRFXTGHFGGLXPCNGP
modifications: Pen at 4; 3-pyridylAla at 12; disulfide; C-terminal amide
IC50 (soluble human FcRn [6]): 92 µM
Kd (soluble human FcRn [7]): 34 µM

B5: Peptide No. 97 (peptide)
peptide: QRYXTGHFGGLYPCNGP
modifications: Pen at 4; disulfide; C-terminal amide
IC50 (soluble human FcRn [3]): 2.4 µM

B7: Peptide No. 195 (peptide)
peptide: QRFXGGHFGGLYPCNGP
modifications: Pen at 4; disulfide; C-terminal amide
Kd (soluble human FcRn [8]): 0.76 µM

B8: Peptide No. 98 (peptide)
peptide: QRWXTGHFGGLYPCNGP
modifications: Pen at 4; disulfide; C-terminal amide
IC50 (soluble human FcRn [3]): 1.5 µM

B9: Peptide No. 146 (peptide)
peptide: RFXTGHFGGLYPCNGP
modifications: Pen at 3; NMeLeu at 10; disulfide; C-terminal amide
Kd (soluble human FcRn [10]): 0.28 µM
Kd (soluble human FcRn [11]): 0.059 µM
IC50 (soluble human FcRn [12]): 2.1 µM

B11: Peptide No. 63 (peptide)
peptide: QRFXTGHFGGLXPCNGP
modifications: Pen at 4; 4-amino-Phe at 12; disulfide; C-terminal amide
IC50 (soluble human FcRn [6]): 110 µM
Kd (soluble human FcRn [7]): 34 µM

B13: Peptide No. 147 (peptide)
peptide: RF[Pen]TGHFG[Sar]YPCNGP-NH2
modifications: disulfide 3-12 (inferred)
notes: printed without the Leu after Sar
Kd (soluble human FcRn [10]): 0.35 µM
Kd (soluble human FcRn [11]): 0.058 µM
IC50 (soluble human FcRn [12]): 1 µM

B14: Peptide No. 194 (peptide)
peptide: QRFXTGHFGXYPCNGP
modifications: Pen at 4; X at 10 = D,L-Friedinger's lactam (dipeptide mimetic for Gly-Leu); disulfide; C-terminal amide
IC50 (soluble human FcRn [14]): 4.9 µM

B15: Peptide No. 207 (peptide)
peptide: RFVTGHF[6,5‑bicyclic dipeptide mimic]LYPA-NH2
modifications: reading uncertain
IC50 (soluble human FcRn [1]): > 125 µM
Kd (soluble human FcRn [2]): 20 µM

B20: Peptide No. 208 (peptide)
peptide: RFVTGHF[X3]LYPA-NH2
modifications: N-terminus assumed
SMILES: CC(C)C[C@H](NC(=O)CN1CCCC[C@H](NC(=O)[C@H](Cc2ccccc2)NC(=O)[C@H](Cc2c[nH]cn2)NC(=O)CNC(=O)[C@@H](NC(=O)[C@@H](NC(=O)[C@H](Cc2ccccc2)NC(=O)[C@@H](N)CCCNC(=N)N)C(C)C)[C@@H](C)O)C1=O)C(=O)N[C@@H](Cc1ccc(O)cc1)C(=O)N1CCC[C@H]1C(=O)N[C@@H](C)C(N)=O
IC50 (soluble human FcRn [1]): 23 µM
Kd (soluble human FcRn [2]): 2.3 µM

B22: Peptide No. 191 (peptide)
peptide: QRFVTGHF[3‑amino‑2‑oxo‑1‑piperidine‑acetic acid]WYPINGP-NH2
modifications: also: further groups not given here
Kd (soluble human FcRn [2]): 333 µM

B23: Peptide No. 35 (peptide)
peptide: QRFCTGHF[Ava]LYPCNGP-NH2
modifications: disulfide 4-13; N-terminus assumed
SMILES: CC(C)C[C@@H]1NC(=O)CCCCNC(=O)[C@H](Cc2ccccc2)NC(=O)[C@H](Cc2c[nH]cn2)NC(=O)CNC(=O)[C@H]([C@@H](C)O)NC(=O)[C@@H](NC(=O)[C@H](Cc2ccccc2)NC(=O)[C@H](CCCNC(=N)N)NC(=O)[C@@H](N)CCC(N)=O)CSSC[C@@H](C(=O)N[C@@H](CC(N)=O)C(=O)NCC(=O)N2CCC[C@H]2C(N)=O)NC(=O)[C@@H]2CCCN2C(=O)[C@H](Cc2ccc(O)cc2)NC1=O
IC50 (soluble human FcRn [21]): > 125 µM
